This note sets out measurements from patent US20220098323A1 (US Dept. of Health and Human Services, published 2022).

In general, Kd refers to the equilibrium constant for the complex coming apart. Read a low Kd as a tighter complex.

The target in one assay is human GPC3 (human, UniProt P51654 25-559, limits assumed). Kind of assay: ELISA. For orientation: ELISA stands for enzyme-linked immunosorbent assay.
Assay [1] deals with T1, human GPC5 (printed as 'GPCS') (human, UniProt P78333 25-554, limits assumed).
T1 construct: The text prints 'GPCS'
T1 sequence (looked up): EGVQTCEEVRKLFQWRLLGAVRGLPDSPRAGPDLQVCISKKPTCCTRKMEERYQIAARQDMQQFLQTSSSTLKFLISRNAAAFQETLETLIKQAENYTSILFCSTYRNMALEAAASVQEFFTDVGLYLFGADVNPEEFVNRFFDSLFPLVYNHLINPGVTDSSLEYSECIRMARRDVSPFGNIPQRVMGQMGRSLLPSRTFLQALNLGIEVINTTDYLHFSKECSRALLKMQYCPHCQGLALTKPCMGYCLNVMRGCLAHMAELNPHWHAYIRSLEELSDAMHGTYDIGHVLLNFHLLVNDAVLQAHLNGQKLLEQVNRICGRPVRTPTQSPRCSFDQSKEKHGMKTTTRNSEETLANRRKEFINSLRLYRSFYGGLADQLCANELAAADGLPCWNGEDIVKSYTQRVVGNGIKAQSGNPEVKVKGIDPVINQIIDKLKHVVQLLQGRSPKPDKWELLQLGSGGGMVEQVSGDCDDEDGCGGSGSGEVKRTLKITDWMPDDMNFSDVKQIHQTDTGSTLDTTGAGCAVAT
Kind of assay: ELISA.

For the next assay, the target named is T2, human GPC6 (human, UniProt Q9Y625 24-529, limits assumed).
T2 sequence (looked up): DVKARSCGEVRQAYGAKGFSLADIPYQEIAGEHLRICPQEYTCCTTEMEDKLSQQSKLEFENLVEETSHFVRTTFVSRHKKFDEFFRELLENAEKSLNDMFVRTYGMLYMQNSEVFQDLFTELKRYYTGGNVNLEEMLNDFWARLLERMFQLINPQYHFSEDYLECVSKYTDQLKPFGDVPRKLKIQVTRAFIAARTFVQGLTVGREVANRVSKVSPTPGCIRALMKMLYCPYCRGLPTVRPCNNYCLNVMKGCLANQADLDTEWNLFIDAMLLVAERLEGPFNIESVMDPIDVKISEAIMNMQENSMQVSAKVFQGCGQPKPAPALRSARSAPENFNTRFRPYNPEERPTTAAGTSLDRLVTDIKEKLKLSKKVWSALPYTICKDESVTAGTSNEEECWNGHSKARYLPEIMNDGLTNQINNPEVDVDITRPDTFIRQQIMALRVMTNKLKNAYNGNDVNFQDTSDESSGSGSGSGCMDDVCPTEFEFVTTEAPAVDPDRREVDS
Kind of assay: ELISA.

The next assay concerns the target T3, human GPC2 (human, UniProt Q8N158 24-554, limits assumed).
T3 sequence (looked up): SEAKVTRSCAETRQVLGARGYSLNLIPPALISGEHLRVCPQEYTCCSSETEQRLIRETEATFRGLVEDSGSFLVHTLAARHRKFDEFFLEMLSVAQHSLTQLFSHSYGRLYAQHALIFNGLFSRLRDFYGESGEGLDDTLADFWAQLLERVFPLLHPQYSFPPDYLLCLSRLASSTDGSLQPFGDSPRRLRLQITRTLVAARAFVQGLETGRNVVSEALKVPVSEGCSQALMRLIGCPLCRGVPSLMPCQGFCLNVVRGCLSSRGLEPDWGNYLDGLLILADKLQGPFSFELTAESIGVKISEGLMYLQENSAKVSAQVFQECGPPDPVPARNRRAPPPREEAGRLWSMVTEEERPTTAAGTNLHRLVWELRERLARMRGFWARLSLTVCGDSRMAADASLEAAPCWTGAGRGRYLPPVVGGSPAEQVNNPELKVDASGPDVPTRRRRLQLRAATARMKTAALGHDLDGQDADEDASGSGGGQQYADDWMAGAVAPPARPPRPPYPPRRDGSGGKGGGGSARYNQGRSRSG
Kind of assay: ELISA.

For another assay, the target named is T4, human glypican-1 (GPC1) (human, UniProt P35052 24-530).
T4 construct: also called human GPC1; HuGPC1
T4 sequence (looked up): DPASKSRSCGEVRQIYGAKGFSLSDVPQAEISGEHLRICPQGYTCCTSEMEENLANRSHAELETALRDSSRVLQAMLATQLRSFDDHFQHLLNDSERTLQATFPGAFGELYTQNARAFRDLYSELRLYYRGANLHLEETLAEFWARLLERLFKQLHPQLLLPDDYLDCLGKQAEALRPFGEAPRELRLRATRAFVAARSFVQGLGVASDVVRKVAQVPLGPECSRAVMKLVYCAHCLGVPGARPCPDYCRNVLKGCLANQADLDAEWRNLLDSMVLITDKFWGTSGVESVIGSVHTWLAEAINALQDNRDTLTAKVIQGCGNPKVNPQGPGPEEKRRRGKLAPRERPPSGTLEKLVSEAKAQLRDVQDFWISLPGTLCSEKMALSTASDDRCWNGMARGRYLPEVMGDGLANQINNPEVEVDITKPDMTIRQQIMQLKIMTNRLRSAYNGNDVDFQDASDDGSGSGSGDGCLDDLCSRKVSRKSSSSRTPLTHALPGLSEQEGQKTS
Nature of the assay: Octet kinetic analysis.

human GPC3, sequence (P51654 25-559 limits assumed): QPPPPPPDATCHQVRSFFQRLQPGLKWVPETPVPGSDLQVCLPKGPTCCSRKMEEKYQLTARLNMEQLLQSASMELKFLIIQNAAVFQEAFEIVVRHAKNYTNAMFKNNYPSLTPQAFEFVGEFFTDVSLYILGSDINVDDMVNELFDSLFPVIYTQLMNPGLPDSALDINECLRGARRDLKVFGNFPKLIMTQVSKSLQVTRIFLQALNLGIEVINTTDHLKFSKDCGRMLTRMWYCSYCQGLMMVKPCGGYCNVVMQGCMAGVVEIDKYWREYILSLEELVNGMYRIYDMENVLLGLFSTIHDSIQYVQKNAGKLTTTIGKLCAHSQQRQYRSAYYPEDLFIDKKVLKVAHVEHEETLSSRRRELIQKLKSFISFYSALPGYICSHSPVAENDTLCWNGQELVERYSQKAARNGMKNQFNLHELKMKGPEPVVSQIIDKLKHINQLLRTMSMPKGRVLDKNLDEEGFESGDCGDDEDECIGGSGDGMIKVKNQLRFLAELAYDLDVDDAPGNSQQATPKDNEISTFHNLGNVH

B1: mouse monoclonal antibody HM2 (antibody, V domains shown)
VH: EVQLQQSGAELVRPGASVKLSCTASGFNIKDDYMHWVKQRPEQGLEWIGWIDPENGDTEYASKFQGKATITADTSSNTAYLQLSSLTSEDTAVYYCTRSSVGYWGQGTTLTVSS
VL: DVVMTQTPLSLPVSLGDQASISCRSSQSLVHSNGNTYLHWYLQKPGQSPKLLIYKVSNRFSGVPDRFSGSGSGTYFTLKISRVEAEDLGVYFCSQRTHVPYTFGGGTKLEIK
notes: Mouse hybridoma antibody; also called HM2 antibody; HM2 anti-GPC1 monoclonal antibody
Consider B1, for which the binding result (with human GPC3; in assay [1]; with human GPC6; with human GPC2) was “no binding” in each case. Further, binding with human glypican-1 (GPC1) was put at a Kd of 1.2 nM.
